The source of these data is article PMC2930068 (Journal of molecular biology, 2010).

B4: phosphorylated-Tyr701 STAT1 (1-712), N-terminal 6-histidine tag (natural protein, UniProt P42224-2 1-712, looked up)
chain: MSQWYELQQLDSKFLEQVHQLYDDSFPMEIRQYLAQWLEKQDWEHAANDVSFATIRFHDLLSQLDDQYSRFSLENNFLLQHNIRKSKRNLQDNFQEDPIQMSMIIYSCLKEERKILENAQRFNQAQSGNIQSTVMLDKQKELDSKVRNVKDKVMCIEHEIKSLEDLQDEYDFKCKTLQNREHETNGVAKSDQKQEQLLLKKMYLMLDNKRKEVVHKIIELLNVTELTQNALINDELVEWKRRQQSACIGGPPNACLDQLQNWFTIVAESLQQVRQQLKKLEELEQKYTYEHDPITKNKQVLWDRTFSLFQQLIQSSFVVERQPCMPTHPQRPLVLKTGVQFTVKLRLLVKLQELNYNLKVKVLFDKDVNERNTVKGFRKFNILGTHTKVMNMEESTNGSLAAEFRHLQLKEQKNAGTRTNEGPLIVTEELHSLSFETQLCQPGLVIDLETTSLPVVVISNVSQLPSGWASILWYNMLVAEPRNLSFFLTPPCARWAQLSEVLSWQFSSVTKRGLNVDQLNMLGEKLLGPNASPDGLIPWTRFCKENINDKNFPFWLWIESILELIKKHLLPLWNDGCIMGFISKERERALLKDQQPGTFLLRFSESSREGAITFTWVERSQNGGEPDFHAVEPYTKKELSAVTFPDIIRNYKVMAAENIPENPLKYLYPNIDKDHAFGKYYSRPKEAPEPMELDGPKGTGYIKTELISVSEV
modifications: phosphotyrosine at 701; alkylated with N-ethyl-maleimide

In series [1] the target is B4. Put plainly: SPR.
The target of series [2] is T1, pSTAT1 (1-712) F77A / L78A (UniProt P42224-2 1-712, F77A | L78A, phosphotyrosine at 701).
T1 sequence (looked up): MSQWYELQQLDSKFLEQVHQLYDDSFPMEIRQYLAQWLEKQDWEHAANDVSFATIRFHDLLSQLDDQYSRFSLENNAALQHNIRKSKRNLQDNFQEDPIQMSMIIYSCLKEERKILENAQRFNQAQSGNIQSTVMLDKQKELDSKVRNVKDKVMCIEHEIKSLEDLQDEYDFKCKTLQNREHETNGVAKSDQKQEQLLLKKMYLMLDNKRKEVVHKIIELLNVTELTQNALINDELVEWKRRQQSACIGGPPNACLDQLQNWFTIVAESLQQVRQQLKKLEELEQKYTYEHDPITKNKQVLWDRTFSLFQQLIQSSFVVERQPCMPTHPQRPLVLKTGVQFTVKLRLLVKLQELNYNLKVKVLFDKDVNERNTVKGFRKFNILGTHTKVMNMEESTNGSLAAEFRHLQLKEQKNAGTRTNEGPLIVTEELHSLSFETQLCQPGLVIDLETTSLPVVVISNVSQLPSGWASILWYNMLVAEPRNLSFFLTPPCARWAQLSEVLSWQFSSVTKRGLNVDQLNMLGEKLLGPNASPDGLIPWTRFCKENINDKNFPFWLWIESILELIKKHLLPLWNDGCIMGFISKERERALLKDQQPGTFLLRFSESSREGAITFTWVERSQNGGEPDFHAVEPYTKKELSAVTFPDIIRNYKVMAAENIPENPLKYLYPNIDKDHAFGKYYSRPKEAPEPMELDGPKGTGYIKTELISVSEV
Nature of the series: SPR.

The series “AUC” concerns the molecule itself. Put plainly: AUC.

Several values for one entry are separate records, joined by “and”; a condition that tells them apart may be missing. Equal values may be shown once.

B1: GST-ΔIBB-importin α5 (res. 79-538) (domain or fragment)
chain: not shown
In series [1], B1 had a Kd of 153 ± 16 nM, a koff of 0.0218 s⁻¹ and a kon of 144000 M⁻¹ s⁻¹.

B2: GST-importin α5 (res. 1-538) (natural protein)
chain: not shown
As to B2, in series [2], the Kd came to 112 ± 22 nM, the koff stood at 0.0113 s⁻¹ and the kon amounted to 98100 M⁻¹ s⁻¹.

B3: unphosphorylated STAT1 (1-712), N-terminal 6-histidine tag (natural protein, UniProt P42224-2 1-712, looked up)
chain: MSQWYELQQLDSKFLEQVHQLYDDSFPMEIRQYLAQWLEKQDWEHAANDVSFATIRFHDLLSQLDDQYSRFSLENNFLLQHNIRKSKRNLQDNFQEDPIQMSMIIYSCLKEERKILENAQRFNQAQSGNIQSTVMLDKQKELDSKVRNVKDKVMCIEHEIKSLEDLQDEYDFKCKTLQNREHETNGVAKSDQKQEQLLLKKMYLMLDNKRKEVVHKIIELLNVTELTQNALINDELVEWKRRQQSACIGGPPNACLDQLQNWFTIVAESLQQVRQQLKKLEELEQKYTYEHDPITKNKQVLWDRTFSLFQQLIQSSFVVERQPCMPTHPQRPLVLKTGVQFTVKLRLLVKLQELNYNLKVKVLFDKDVNERNTVKGFRKFNILGTHTKVMNMEESTNGSLAAEFRHLQLKEQKNAGTRTNEGPLIVTEELHSLSFETQLCQPGLVIDLETTSLPVVVISNVSQLPSGWASILWYNMLVAEPRNLSFFLTPPCARWAQLSEVLSWQFSSVTKRGLNVDQLNMLGEKLLGPNASPDGLIPWTRFCKENINDKNFPFWLWIESILELIKKHLLPLWNDGCIMGFISKERERALLKDQQPGTFLLRFSESSREGAITFTWVERSQNGGEPDFHAVEPYTKKELSAVTFPDIIRNYKVMAAENIPENPLKYLYPNIDKDHAFGKYYSRPKEAPEPMELDGPKGTGYIKTELISVSEV
Consider B3, for which the “stoichiometry N” value in “AUC” amounted to 2.
On the same count and under the same terms, next, B4: 2 and ~4.

B5: GST-importin α5 (res. 1-504) (domain or fragment)
chain: not shown
With B5, in series [1], the Kd worked out at 247 ± 27 nM, the koff turned out to be 0.0243 s⁻¹ and the kon worked out at 98300 M⁻¹ s⁻¹.

B6: GST-importin α5 (res. 1-512) (domain or fragment)
chain: not shown
In series [1], B6 came in with a Kd of 166 ± 17 nM, a koff of 0.0204 s⁻¹ and a kon of 124000 M⁻¹ s⁻¹.
